In patent US12559743, “Engineered guide scaffolds” (Scribe Therapeutics Inc.):

Molecular target: T1, CasX 491 (engineered CasX)
T1 chain: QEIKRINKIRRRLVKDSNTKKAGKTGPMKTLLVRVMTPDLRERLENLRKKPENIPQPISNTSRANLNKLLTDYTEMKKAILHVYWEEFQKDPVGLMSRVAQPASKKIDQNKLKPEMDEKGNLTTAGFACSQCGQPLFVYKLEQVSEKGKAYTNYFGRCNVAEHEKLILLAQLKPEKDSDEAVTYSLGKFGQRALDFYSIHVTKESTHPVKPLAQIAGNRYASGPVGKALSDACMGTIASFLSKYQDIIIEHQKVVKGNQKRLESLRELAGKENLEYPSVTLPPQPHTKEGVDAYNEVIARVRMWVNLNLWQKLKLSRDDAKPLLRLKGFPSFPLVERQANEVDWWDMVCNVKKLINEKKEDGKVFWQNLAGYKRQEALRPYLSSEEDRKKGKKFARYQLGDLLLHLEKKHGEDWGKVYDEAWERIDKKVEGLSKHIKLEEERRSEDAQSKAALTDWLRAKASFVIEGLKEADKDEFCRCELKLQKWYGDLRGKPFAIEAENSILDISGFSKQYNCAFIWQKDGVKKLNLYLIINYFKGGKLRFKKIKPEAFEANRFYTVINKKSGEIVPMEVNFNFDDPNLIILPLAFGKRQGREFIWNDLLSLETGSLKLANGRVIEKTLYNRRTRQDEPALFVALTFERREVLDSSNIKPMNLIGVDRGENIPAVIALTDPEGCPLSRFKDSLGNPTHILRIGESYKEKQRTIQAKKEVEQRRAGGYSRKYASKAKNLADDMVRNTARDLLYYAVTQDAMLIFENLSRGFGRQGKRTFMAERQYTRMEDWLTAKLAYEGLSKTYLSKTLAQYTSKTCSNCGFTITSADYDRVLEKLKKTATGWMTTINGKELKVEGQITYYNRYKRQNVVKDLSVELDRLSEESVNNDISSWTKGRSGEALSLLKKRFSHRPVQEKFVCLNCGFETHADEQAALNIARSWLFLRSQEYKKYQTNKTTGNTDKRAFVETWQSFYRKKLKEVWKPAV
Assay: cell_activity; high dose; about 25% greater at low dose; PAM not stated for this spacer
Method: Cells were nucleofected with the indicated doses of p59 plasmids encoding CasX 491, the scaffold, and spacer 11.30 (5' […] 3', SEQ ID NO: 17) targeting mRHO. […] Cells were nucleofected with the indicated doses of p59 plasmids encoding CasX 491, the scaffold, and spacer 12.7 (5' […]-GUUU 3', SEQ ID NO: 1146) targeting repeat elements preventing expression of the tdTomato fluorescent protein. Editing was assessed 5 days post-transfection by FACS, to quantify the fraction of tdTomato positive cells.

B1: sgRNA scaffold 235 + spacer 12.7 ; tdTomato locus target (spacer 12.7 protospacer) (ssRNA ; dsDNA)
RNA: ACUGGCGCUUCUAUCUGAUUACUCUGAGCGCCAUCACCAGCGACUAUGUCGUAGUGGGUAAAGCCGCUUACGGACUUCGGUCCGUAAGAGGCAUCAGAGCUGCAUUCUAGUUGUGGUUU
DNA 1: CTGCATTCTAGTTGTGGTTT
DNA 2: AAACCACAACTAGAATGCAG
  activity: ~35 % greater than scaffold 174
